# Assay results: the DeepSol protein solubility set
# Test: soluble on expression in E. coli; label from the status in PepcDB or PDB records
row,Sequence,soluble on expression in E. coli
1,MGSDKIHHHHHHMRVSSDDALFYRIEAFFRGRAYGPHRHDTYAVGITTAGIQSIRYRGELVHSSPGDTVVIHPDEIHDGRAGTVAGYCYRIVHLQPEALQQILGQTSLPFIKEGVSQNAQLYQAIWAMLREFDRPLEPLERTDLLFDLAMALQAAAGTAKAKHTGNIKAALIARDCIRSAPSQRIELDVLARESGRDRWSLSRDFRQFFGTSPSRYMTMRRLDIARRLMSNGTPLAECAVAVGFADQSHMSRQFVEAFGLTPTRWLTMLR,not soluble
2,MRTLRIGIVGLGGIAQKAWLPVLTNTAGWTLQGAWSPSRDKALRICESWRIPYVDSLANLASSCDAVFVHSSTASHYAVVSELLNAGVHVCVDKPLAENLRDAERLVALAAQKKLTLMVGFNRRFAPLYRELKTRLGTAASLRMDKHRTDSVGPHDLRFTLLDDYLHVVDTALWLAGGEARLASGTLLTSESGEMCYAEHHFSADKLQITTSMHRRAGSQRESVQAVTDGGLYDVTDMREWREERGQGILIKPIPSWQTTLEQRGFVGCARHFIDCVQNQTVPETAGEQAILAQRVVEALWRDAISE,not soluble
3,MAAISFLGDLIQTISDRGRDLIGLARSDLARTASAADLARFCEDLISRRGEASGVALARLILDRYAAFPLEDRLAFLELIATEFGADHDAVDAAIAAYRADPTRARLGLLHVAAEPRSQELIRRLNLARGGTLALVRMREDLFTLRKRLKDREAAPETIDATVSLDSDFEHLFASWFNRGFLVLRPIDWSTPADILEKIIRYEAVHEIADWDELRRRIQPTDRRCFAFFHPALLDEPLIFVEVALTNAIAPAIQPILADGREPVPARSATTAIFYSISNCQKGLAGVTFGNFLIKQVVEDLAREIPSLKTFVTLSPVPGFRTWLDRERGAGAPQGLTREDVEALRLLDTEDWRSDKTKCEAVRRAMLPAAAAYFLRAKNEKGRPLDPVARFHLGNGARLERMNFLGDTSKKGLKQSYGLMVNYLYDLSAIEKNHETYVNLGTVATSSAVSRELRSNLPPPRAVVLAEAGLEHHHHHH,not soluble
4,MGIGSKILENNIQKSISLGFYHSHSELRKSFYEFFKSKNHEILRSSSVIPDENDGTLLFTNAGMNQFKPLILSSTESRRVANIQKCIRAGGKHNDLDDVGKDLHHQTFFEMMGNWSFNDAFSKEEACRYAWEYLVEILGINADRLYVSYFGGIEKLGLPEDRECREIWKRIGVSSNRILPFVAENFWEMGAAGPCGPCTEIHYDRIGGRDASRLVNIDDSVVEIWNIVFMSSVRDSCGQIRHLGKNHIDTGMGFERLLSVVQNKTSNFDTDVFTPILEKTSELAKKQYTGSLDSRQDATFRLVADHIRAATVAISDGAVPDGTGCGFIVRKMMRRAFLQGISKLGIERYAMSELVPVVASTMKEVYPEIHDTSTHIRKIFNDEEAQFWKTVDKAKKMFDSVAAESKSPIISGRKAFNLFETHGLPLAVTVELARNIGREVDETEFERCRLEAQKVSQKASQFKLPISADDFPSHSDKEKYSYVFRNGKYEFPQVKTRILQVYKDQQKAESLEANDRGFLVLEECQFYGEQGGQTSDTGHLLIDGREVFEVENAKKIAGGAVTVLFGRALLPIRRDLRVEQKLDETRREGVMRAHSATHLLNWALQKLGVGSGQKGSSVDCDRFRFDYSTGDEDLSKEQRTELLIKCEMKMREFIQNGGFTEIIETSLEEAKKIENLQSDVKEDRIGGASVRVVALGSGADVPVECCSGTHIHDVRVIDDVAIMSDKSMGQRLRRIIVLTGKEAAACRNYTKSIYEDLRSTDPKERSKTGKNIDWKRVPIADQARISILLKQKK,not soluble
5,MSLAPAEWVALNYVPFAERSLEVVVDLYQKTACHKAVVNEKVLQNIIKTLRVPLSLKYSCPSESTWKLAVSSLLRVLSIGLPVARQHASSGKFDSMWPELANTFEDFLFTKSIPPDNLSIQEFQRNENIDVEVVQLISNEILPYANFIPKEFVGQIMTMLNKGSIHSQSSSFTEAEIDIRLREEFSKMCFETLLQFSFSNKVTTPQEGYISRMALSVLLKRSQDVLHRYIEDERLSGKCPLPRQQVTEIIFVLKAVSTLIDSLKKTQPENVDGNTWAQVIALYPTLVECITCSSSEVCSALKEALVPFKDFMQPPASRVQNGEEGHHHHHH,not soluble
6,MRIEQELKLGFKDVLFRPKRSTLKSRSQVNLTREFTFKHSGRQWSGVPVIAANMDSVGSFAMAKALAEHGVMTAVHKHYTVADWAEFVKSADKATLNNVMVSTGTSEADFQKTKDVMALSDELIFICIDIANGYSEHLVEYVQRVRAAFPDKVISAGNVVTGDMVEELILAGADIVKVGIGPGSVCTTRVKTGVGYPQLSAIIECADAAHGLGGRIIGDGGCTCPGDVAKAFGGGADFVMLGGMLAGHEEAGGELIVKDGETFMKFYGMSSKSAMDKHSGGVAGYRAAEGKTVLLPYRGSVHGTIQDILGGVRSTCTYVGAAELRELTKRTTFIRVQEQENNVYGRE,soluble
7,MSLKPIIPEDERSKEPLDTDRVIYHPDMIRANEWVLNEYEAPYRELCIFVPCAKRKPYHESPSHKKFDRIIFGIAKPEDVHIVTFGTCGITPRELDTQYPFMHYSFMMGKCNVAKIKRDFIKMESERLAAYLEKTRDNYKHRIAYCIGDFRTAMEKAVEMVDVEVDIVPRESTIQKMIQPDKPFIYNSLSSREYLQDFSDAITDALKLPKRKVGLKEDLSVDDADWYLLEGHHHHHH,soluble
8,MSLEKLKSTEFYASQIKHCFTIPSRTAKYKGLCFELAPEVYQGMEHENFYSHQADAINSLHQGENVIITTSTSSGKSLIYQLAAIDLLLKDPESTFMYIFPTKALAQDQKRAFKVILSKIPELKNAVVDTYDGDTEPEERAYIRKNARVIFTNPDMIHTSILPNHANWRHFLYHLKLVVVDELHIYKGLFGSHVALVMRRLLRLCHCFYENSGLQFISCSATLKSPVQHMKDMFGINEVTLIHEDGSPTGAKHLVVWNPPILPQHERKRENFIRESAKILVQLILNNVRTIAFCYVRRVCELLMKEVRNIFIETGREDLVTEVMSYRGGYSASDRRKIEREMFHGNLKAVISTNALELGIDIGGLDAVLMCGFPLSMANFHQQSGRAGRRNNDSLTLVVASDSPVDQHYVAHPESLLEVNNFESYQDLVLDEGHHHHHH,not soluble
9,MADRNLRDLLAPWVAGLPARELREMTLDSRVAAAGDLFVAVVGHQADGRRYIPQAIAQGVAAIIAEAKDEASDGEIREMHGVPVVYLSQLNERLSALAGRFYHEPSENMRLVAVTGTNGKTTTTQLLAQWSQLLGETSAVMGTVGNGLLGKVIPTENTTGSAVDVQHVLASLVAQGATFGAMEVSSHGLVQHRVAALKFAASVFTNLSRDHLDYHGDMAHYEAAKWMLYSTHHHGQAIVNADDEVGRRWLASLPDAVAVSMEGHINPNCHGRWLKAEAVEYHDRGATIRFASSWGEGEIESRLMGAFNVSNLLLALATLLALGYPLTDLLKTAARLQPVCGRMEVFTAPGKPTVVVDYAHTPDALEKALQAARLHCAGKLWCVFGCGGDRDKGKRPLMGAIAEEFADIVVVTDDNPRTEEPRAIINDILAGMLDAGQVRVMEGRAEAVTNAIMQAKDNDVVLIAGKGHEDYQIVGTQRLDYSDRVTAARLLGVIA,not soluble
10,MVENVKIIRKKIKNMYLVVNPDCSVVVKAPVHVSDEYINSFIKKKESWIKKHLENFESLNSKSVAKKYIDGELFKYLGNEYILKVYPSKKEYLEISDNFFNLYVLETNDFEKKKKIIEKFYRKRAEIELFEIFKSNYKVVTEKMPDFSVRKMKKRWGSCSFHKNKIILNERLIEKSKDCIEYVVFHELAHLRYPNHSKDFYNYLTELMPEWKVKKLKLNERHLEHHHHHH,soluble
11,MSIAEFAYKEKPETLVLFDVDGTLTPARLTVSEEVRKTLAKLRNKCCIGFVGGSDLSKQLEQLGPNVLDEFDYSFSENGLTAYRLGKELASQSFINWLGEEKYNKLAVFILRYLSEIDLPKRRGTFLEFRNGMINVSPIGRNASTEERNEFERYDKEHQIRAKFVEALKKEFPDYGLTFSIGGQISFDVFPAGWDKTYCLQHVEKDGFKEIHFFGDKTMVGGNDYEIFVDERTIGHSVQSPDDTVKILTELFNL,soluble
12,MSETFSGFDTAPVARVQAAFEEIAHRSMHDLSFLHPTMPVHVSDFTLFEGQWTGTVITPWMLSALIFPGPDQIWPRRTVGEKLGLQLPYGTMTFTVGELEGVSQYLACSLMSPLSRSLSPEEGVRLADDCARMLLSLPVSNPDAPQTSRRALLFGRRSCENA,not soluble
13,MGSDKIHHHHHHMMGMKETVSNIVTSQAEKGGVKHVYYVACGGSYAAFYPAKAFLEKEAKALTVGLYNSGEFINNPPVALGENAVVVVASHKGNTPETIKAAEIARQHGAPVIGLTWIMDSPLVAHCDYVETYTFGDGKDIAGEKTMKGLLSAVELLQQTEGYAHYDDFQDGVSKINRIVWRACEQVAERAQAFAQEYKDDKVIYTVASGAGYGAAYLQSICIFMEMQWIHSACIHSGEFFHGPFEITDANTPFFFQFSEGNTRAVDERALNFLKKYGRRIEVVDAKELGLSTIKTTVIDYFNHSLFNNVYPVYNRALAEARQHPLTTRRYMWKVEY,not soluble
14,MSLNRDQSDLHIDELLADPFGGNIEIPGSEAVKAEKEQVRLVDVLPEENKEKAIQLAGQIDHKNMQSIVLYGSQAQSKLLNFSHDMINHVQKKDVGEIGEILGELMKKLEQVNPDDLQSKKKGFLARMFGRVSSSLQEVLSKYQKTSVQIDRISLKLEHSKNALISDNKLLEQLYEKNKEYFAALNVYIAAGELKLEELKTKTIPELKQQAESSDHNQMAVQEVNDLIQFADRLDKRVHDLLLSRQITIQSAPQIRLIQNTNQALAEKIQSSIVTAIPLWKNQVAIALTLLRQRNAVDAQQKVSDTTNELLLKNAELLKTNTIETARANERGLVDIDTLKKVQESLISTLEETLTIQEEGRIKRRQAEEELMMMEGDLKQKLITIKEREGHHHHHH,soluble
15,GTKQKMRTVFSQAQLCALKDRFQKQKYLSLQQMQELSSILNLSYKQVKTWFQNQRMKCKRWQ,soluble
16,MSNVQNASRSSAFAAVEGDHWVESLDDGRHVLIRPLREEDRERERQFINRLSPATRHFRFLGEIKEASPALLDQLMDIDYQQSMAFVALVHEDGELREVGISRYAACCEEGQCECAVTIADDYQGLGLDAVLMRHLIDVARRNGFRQMYSVDSAANRAMRDLCCALGFVGQRDPDDSTQVIHRLAL,not soluble
17,MGSDKIHHHHHHMHIVDVTMFYAPASGGVRTYLQAKREILSQVPGLRTSLLVPGAERDSLGNHHTLPALRLPLGQGYRFPLRARLWRDALGALAPDIIEAGDPYVTAWAALDASQRLGVPVVGFYHSDLPRLMGDRFGRQVGRRLERYVVNLYRRFDSVLAPCQAMADRLRDWGIDQVRVQPLGVDLQRFHPSCKDPALREELGLAPETRLLVFIGRNSREKNIDILLATMKRLGNGYHLLLIGPGMPRQVPANVTSFDRCCGIYEVARVLASSDAMLHAGTRETFGLIAQEAMASGIPVVGAKAGALKENVPLGAGILCRPLDPEAMADACQSLFRNDVVASGRYARRYVELHFSWESAMKNLLEHYRQLCASSELHVIPQKA,not soluble
